Results on 125 sequences are retold here after the supplement of paper PMC9112550, “Optimization of the antimicrobial peptide Bac7 by deep mutational scanning” (BMC Biology, 2022).

In this data set the test system is Escherichia coli TOP10. As to the kind of experiment: shrunken log2 fold change of peptide-encoding DNA abundance (4.5 h post-induction vs induction); higher = less antimicrobial activity (less host growth inhibition). As to conditions: time post-induction: 4.5 h; library: site-saturation at positions 5, 18, 19, 20.
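Note: peptides expressed intracellularly from a pBAD plasmid library in pooled LB shake-flask culture, induced with 0.3% L-arabinose, DNA abundance read by NGS, three biological replicates, DESeq2 with apeglm shrinkage.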

RRIRQRPPRLPRPRPRPHLKPRP: the “shrunken log2 fold change” value is -0.0175.

RRIRNRPPRLPRPRPRPLKGPRP: the “shrunken log2 fold change” value was -0.0139.

For the sequence RRIRMRPPRLPRPRPRPASEPRP, the “shrunken log2 fold change” value was found to be 0.145.

As to RRIRHRPPRLPRPRPRPSYRPRP, the “shrunken log2 fold change” value was -0.481.

On to RRIRARPPRLPRPRPRPCSYPRP, for which the “shrunken log2 fold change” value is -0.0595.

Consider RRIRTRPPRLPRPRPRPYQTPRP, for which the “shrunken log2 fold change” value was -0.128.

For RRIRFRPPRLPRPRPRPNLPPRP, the “shrunken log2 fold change” value was -0.454.

Consider RRIRGRPPRLPRPRPRPYDSPRP, for which the “shrunken log2 fold change” value came to 0.0118.

For RRIRPRPPRLPRPRPRPALFPRP, the “shrunken log2 fold change” value amounted to 0.2.

With RRIRQRPPRLPRPRPRPKLMPRP, the “shrunken log2 fold change” value is -0.082.

For RRIRPRPPRLPRPRPRPRWWPRP, the “shrunken log2 fold change” value is 0.0553.

RRIRGRPPRLPRPRPRPYISPRP: the “shrunken log2 fold change” value was -0.325.

For the sequence RRIRPRPPRLPRPRPRPWHNPRP, the “shrunken log2 fold change” value was -0.809.

Turning to RRIRPRPPRLPRPRPRPGMAPRP, the “shrunken log2 fold change” value worked out at 0.204.

Take RRIRGRPPRLPRPRPRPGRHPRP: the “shrunken log2 fold change” value is 0.314.

Take RRIRKRPPRLPRPRPRPQPQPRP: the “shrunken log2 fold change” value is 0.817.

Take RRIRLRPPRLPRPRPRPGSNPRP: the “shrunken log2 fold change” value is -0.57.

Take RRIRVRPPRLPRPRPRPRNRPRP: the “shrunken log2 fold change” value was -0.338.

As to RRIRNRPPRLPRPRPRPSDIPRP, the “shrunken log2 fold change” value is 0.0588.

RRIRDRPPRLPRPRPRPRSKPRP: the “shrunken log2 fold change” value worked out at 0.401.

With RRIRMRPPRLPRPRPRPSFNPRP, the “shrunken log2 fold change” value was -0.535.

For RRIRERPPRLPRPRPRPYVIPRP, the “shrunken log2 fold change” value was -0.172.

As for RRIRSRPPRLPRPRPRPIECPRP, the “shrunken log2 fold change” value was -0.139.

On to RRIRERPPRLPRPRPRPQMSPRP, for which the “shrunken log2 fold change” value is -0.114.

Turning to RRIRMRPPRLPRPRPRPSWNPRP, the “shrunken log2 fold change” value is -0.15.

RRIRARPPRLPRPRPRPQYAPRP: the “shrunken log2 fold change” value is 0.0596.

As to RRIRMRPPRLPRPRPRPGMYPRP, the “shrunken log2 fold change” value came to 0.124.

With RRIRGRPPRLPRPRPRPMNCPRP, the “shrunken log2 fold change” value was found to be 0.0167.

For RRIRWRPPRLPRPRPRPAAKPRP, the “shrunken log2 fold change” value is 0.482.

Turning to RRIRGRPPRLPRPRPRPSESPRP, the “shrunken log2 fold change” value stood at 0.504.

For the sequence RRIRDRPPRLPRPRPRPENIPRP, the “shrunken log2 fold change” value is -0.172.

Regarding RRIRHRPPRLPRPRPRPVNYPRP, the “shrunken log2 fold change” value is -0.881.

As to RRIRHRPPRLPRPRPRPKFYPRP, the “shrunken log2 fold change” value is -0.148.

As to RRIRVRPPRLPRPRPRPFSAPRP, the “shrunken log2 fold change” value is -0.132.

As to RRIRMRPPRLPRPRPRPLQRPRP, the “shrunken log2 fold change” value is 0.0735.

Turning to RRIRGRPPRLPRPRPRPIRWPRP, the “shrunken log2 fold change” value stood at 0.577.

For RRIRERPPRLPRPRPRPYNTPRP, the “shrunken log2 fold change” value was -0.742.

On to RRIRCRPPRLPRPRPRPSLPPRP, for which the “shrunken log2 fold change” value was -0.0253.

Take RRIRGRPPRLPRPRPRPASRPRP: the “shrunken log2 fold change” value is 0.705.

Consider RRIRSRPPRLPRPRPRPSELPRP, for which the “shrunken log2 fold change” value is -0.215.

As to RRIRYRPPRLPRPRPRPHYYPRP, the “shrunken log2 fold change” value was 0.0204.

Consider RRIRFRPPRLPRPRPRPWGWPRP, for which the “shrunken log2 fold change” value is 0.346.

As for RRIRHRPPRLPRPRPRPPAPPRP, the “shrunken log2 fold change” value came out at 0.466.

Regarding RRIRCRPPRLPRPRPRPGLLPRP, the “shrunken log2 fold change” value was found to be 0.0187.

With RRIRKRPPRLPRPRPRPMDHPRP, the “shrunken log2 fold change” value was 0.34.

As for RRIRIRPPRLPRPRPRPMRKPRP, the “shrunken log2 fold change” value was 0.0125.

RRIRARPPRLPRPRPRPQPPPRP: the “shrunken log2 fold change” value was determined as 0.715.

For RRIRQRPPRLPRPRPRPAHRPRP, the “shrunken log2 fold change” value was determined as 0.151.

As to RRIRTRPPRLPRPRPRPNYTPRP, the “shrunken log2 fold change” value is -0.753.

With RRIRHRPPRLPRPRPRPGVAPRP, the “shrunken log2 fold change” value came to 0.207.

On to RRIRCRPPRLPRPRPRPNQEPRP, for which the “shrunken log2 fold change” value is -0.0562.

With RRIRARPPRLPRPRPRPTKCPRP, the “shrunken log2 fold change” value came out at 0.141.

In the case of RRIRARPPRLPRPRPRPLNAPRP, the “shrunken log2 fold change” value worked out at 0.486.

Turning to RRIRYRPPRLPRPRPRPYHCPRP, the “shrunken log2 fold change” value is -0.00776.

In the case of RRIRHRPPRLPRPRPRPLLYPRP, the “shrunken log2 fold change” value is -0.528.

On to RRIRYRPPRLPRPRPRPCFRPRP, for which the “shrunken log2 fold change” value is -0.266.

As to RRIRWRPPRLPRPRPRPDWRPRP, the “shrunken log2 fold change” value is -0.0316.

For RRIRIRPPRLPRPRPRPRRDPRP, the “shrunken log2 fold change” value was -0.108.

RRIRVRPPRLPRPRPRPFLWPRP: the “shrunken log2 fold change” value is -0.698.

Regarding RRIRCRPPRLPRPRPRPSIPPRP, the “shrunken log2 fold change” value is -0.969.

Take RRIRCRPPRLPRPRPRPKDTPRP: the “shrunken log2 fold change” value was determined as 0.382.

Regarding RRIRARPPRLPRPRPRPRKEPRP, the “shrunken log2 fold change” value was -0.0116.

RRIRDRPPRLPRPRPRPQNFPRP: the “shrunken log2 fold change” value is -0.707.

RRIRHRPPRLPRPRPRPIHQPRP: the “shrunken log2 fold change” value was -0.441.

Regarding RRIRIRPPRLPRPRPRPISVPRP, the “shrunken log2 fold change” value worked out at 0.0153.

As to RRIRARPPRLPRPRPRPKRHPRP, the “shrunken log2 fold change” value was 0.511.

On to RRIRMRPPRLPRPRPRPSGRPRP, for which the “shrunken log2 fold change” value stood at 0.556.

Turning to RRIRIRPPRLPRPRPRPIPVPRP, the “shrunken log2 fold change” value was -0.0943.

In the case of RRIRHRPPRLPRPRPRPNYVPRP, the “shrunken log2 fold change” value was -0.0206.

As to RRIRNRPPRLPRPRPRPEEDPRP, the “shrunken log2 fold change” value was 0.659.

As to RRIRIRPPRLPRPRPRPLKGPRP, the “shrunken log2 fold change” value was -0.0404.

As to RRIRCRPPRLPRPRPRPTMCPRP, the “shrunken log2 fold change” value is -0.755.

For the sequence RRIRGRPPRLPRPRPRPFHQPRP, the “shrunken log2 fold change” value was -0.199.

Regarding RRIRTRPPRLPRPRPRPTKCPRP, the “shrunken log2 fold change” value is -0.173.

With RRIRVRPPRLPRPRPRPQSTPRP, the “shrunken log2 fold change” value turned out to be 0.00487.

Regarding RRIRPRPPRLPRPRPRPVQYPRP, the “shrunken log2 fold change” value was -0.0191.

As to RRIRRRPPRLPRPRPRPSTAPRP, the “shrunken log2 fold change” value turned out to be 0.297.

On to RRIRIRPPRLPRPRPRPCWSPRP, for which the “shrunken log2 fold change” value came to 0.0832.

Regarding RRIRPRPPRLPRPRPRPKIFPRP, the “shrunken log2 fold change” value was -0.0976.

Take RRIRSRPPRLPRPRPRPQMMPRP: the “shrunken log2 fold change” value is -0.143.

Turning to RRIRFRPPRLPRPRPRPKHLPRP, the “shrunken log2 fold change” value is -0.0736.

Regarding RRIRKRPPRLPRPRPRPHPVPRP, the “shrunken log2 fold change” value came to 0.185.

For RRIRGRPPRLPRPRPRPRDEPRP, the “shrunken log2 fold change” value is 0.293.

For the sequence RRIRRRPPRLPRPRPRPVIWPRP, the “shrunken log2 fold change” value worked out at 0.185.

Regarding RRIRSRPPRLPRPRPRPFVEPRP, the “shrunken log2 fold change” value was -0.123.

With RRIRIRPPRLPRPRPRPVRHPRP, the “shrunken log2 fold change” value is -0.0859.

As to RRIRMRPPRLPRPRPRPYKLPRP, the “shrunken log2 fold change” value was found to be 0.00411.

With RRIRNRPPRLPRPRPRPYSPPRP, the “shrunken log2 fold change” value was -0.276.

Turning to RRIRWRPPRLPRPRPRPSSIPRP, the “shrunken log2 fold change” value is -0.338.

With RRIRQRPPRLPRPRPRPGHRPRP, the “shrunken log2 fold change” value amounted to 0.0349.

Regarding RRIRCRPPRLPRPRPRPQFMPRP, the “shrunken log2 fold change” value is -0.59.

In the case of RRIRARPPRLPRPRPRPETQPRP, the “shrunken log2 fold change” value came to 1.57.

On to RRIRVRPPRLPRPRPRPLANPRP, for which the “shrunken log2 fold change” value was -0.0581.

Turning to RRIRFRPPRLPRPRPRPYIFPRP, the “shrunken log2 fold change” value was -0.829.

Consider RRIRYRPPRLPRPRPRPPWGPRP, for which the “shrunken log2 fold change” value was -0.0336.

For the sequence RRIRLRPPRLPRPRPRPGRKPRP, the “shrunken log2 fold change” value came to 0.0459.

RRIRHRPPRLPRPRPRPKPEPRP: the “shrunken log2 fold change” value turned out to be 0.0966.

Regarding RRIRVRPPRLPRPRPRPFQTPRP, the “shrunken log2 fold change” value is -0.214.

With RRIRHRPPRLPRPRPRPGTMPRP, the “shrunken log2 fold change” value is -0.0455.

As for RRIRLRPPRLPRPRPRPHMDPRP, the “shrunken log2 fold change” value was -0.549.

Regarding RRIRMRPPRLPRPRPRPGAIPRP, the “shrunken log2 fold change” value amounted to 1.4.

Turning to RRIRSRPPRLPRPRPRPESIPRP, the “shrunken log2 fold change” value is -0.397.

Consider RRIRMRPPRLPRPRPRPRNSPRP, for which the “shrunken log2 fold change” value is -0.294.

For RRIRERPPRLPRPRPRPHFVPRP, the “shrunken log2 fold change” value was -0.0987.

For RRIRCRPPRLPRPRPRPYPQPRP, the “shrunken log2 fold change” value is -0.595.

On to RRIRERPPRLPRPRPRPNLGPRP, for which the “shrunken log2 fold change” value was -0.161.

Regarding RRIRRRPPRLPRPRPRPWHYPRP, the “shrunken log2 fold change” value was -0.0356.

RRIRRRPPRLPRPRPRPFAPPRP: the “shrunken log2 fold change” value was determined as 0.368.

Consider RRIRRRPPRLPRPRPRPEPGPRP, for which the “shrunken log2 fold change” value came to 0.587.

RRIRHRPPRLPRPRPRPYHPPRP: the “shrunken log2 fold change” value is -0.00776.

Turning to RRIRSRPPRLPRPRPRPSLRPRP, the “shrunken log2 fold change” value was -0.269.

Regarding RRIRRRPPRLPRPRPRPRTMPRP, the “shrunken log2 fold change” value stood at 0.221.

Turning to RRIRQRPPRLPRPRPRPCVSPRP, the “shrunken log2 fold change” value was -0.107.

Turning to RRIRARPPRLPRPRPRPTDMPRP, the “shrunken log2 fold change” value is -0.0247.

As for RRIRGRPPRLPRPRPRPMTDPRP, the “shrunken log2 fold change” value came to 0.603.

For the sequence RRIRDRPPRLPRPRPRPPDEPRP, the “shrunken log2 fold change” value was found to be 0.00333.

As to RRIRNRPPRLPRPRPRPRFYPRP, the “shrunken log2 fold change” value is -0.201.

Consider RRIRWRPPRLPRPRPRPFRCPRP, for which the “shrunken log2 fold change” value is -0.257.

As for RRIRNRPPRLPRPRPRPIQIPRP, the “shrunken log2 fold change” value was -0.363.

Consider RRIRIRPPRLPRPRPRPHEKPRP, for which the “shrunken log2 fold change” value is -0.123.

Turning to RRIRPRPPRLPRPRPRPFYCPRP, the “shrunken log2 fold change” value was -0.212.

As for RRIRIRPPRLPRPRPRPLENPRP, the “shrunken log2 fold change” value is -0.309.

RRIRNRPPRLPRPRPRPTGSPRP: the “shrunken log2 fold change” value came to 0.1.

RRIRNRPPRLPRPRPRPCWCPRP: the “shrunken log2 fold change” value is -0.147.

For RRIRKRPPRLPRPRPRPSRIPRP, the “shrunken log2 fold change” value stood at 0.156.
